This note sets out measurements from patent publication US9914781 (GlaxoSmithKline, dated 2018).

For assay [1], the target named is T1, recombinant human TrkB extracellular domain (FLAG tag-GSA-C32-H430-His5) (human, UniProt Q16620 31-430).
T1 construct: Single alanine mutants were made in this ECD; also called TrkB-ECD; TrkB ECD; not shown: FLAG tag
Kind of assay: SPR, human TrkB-ECD. A general note: Surface plasmon resonance follows binding to a sensor surface in real time, without labels.

For assay [2], the target named is T2, human full-length TrkB receptor (human, UniProt Q16620 32-822). Kind of assay: cell-based or functional assay.
The target of another assay is T3, TrkB_H284-H430 ECD-6H (human, UniProt Q16620 284-430).
T3 construct: the SEC-MALS construct is named only by its residue limits and tag; also called soluble truncated form of the ECD of TrkB
Put plainly: SEC-MALS. (Size exclusion chromatography separates by hydrodynamic size, large species first.)

The target of assay [3] is T2, human full-length TrkB receptor. Kind of assay: cell-based or functional assay. This is another data set of the same source.
The target in assay [4] is T4, pan-neurotrophin receptor p75^NTR (UniProt P08138 29-427, limits assumed).
T4 construct: whole, on cells
T4 sequence (looked up): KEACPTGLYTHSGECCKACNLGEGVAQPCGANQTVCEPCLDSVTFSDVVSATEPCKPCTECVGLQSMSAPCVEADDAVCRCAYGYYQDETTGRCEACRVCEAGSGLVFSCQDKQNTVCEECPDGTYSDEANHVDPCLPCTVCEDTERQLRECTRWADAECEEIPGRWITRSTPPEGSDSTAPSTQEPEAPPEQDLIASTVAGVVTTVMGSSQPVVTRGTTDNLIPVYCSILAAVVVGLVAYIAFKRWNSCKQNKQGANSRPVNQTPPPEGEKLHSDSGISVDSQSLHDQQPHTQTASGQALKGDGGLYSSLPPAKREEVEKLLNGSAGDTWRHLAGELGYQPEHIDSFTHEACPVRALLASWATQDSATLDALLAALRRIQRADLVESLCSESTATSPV
Put plainly: cell based binding assay.

The target of assay [5] is T2, human full-length TrkB receptor. Kind of assay: cell-based or functional assay. This is another data set of the same source.
In assay [6] the target is TrkB D1-D3 domain variant (C32-L196) (human, UniProt Q16620 32-196). Put plainly: SPR with TrkB domain deletion variants.
Another assay has as its target T5, rat TrkB receptor (rat, UniProt Q63604 32-821).
T5 construct: whole, on cells; also called rodent TrkB
Kind of assay: recombinant TrkB in a heterologous cell line, primary cells or human iPSC derived cells.

Another assay addresses T6, murine TrkB receptor (murine, UniProt P15209 32-821).
T6 construct: whole, on cells; also called mouse TrkB; rodent TrkB
Described as above.

The target in another assay is human FcRn (human, UniProt P55899 24-297; P61769 21-119, limits assumed). Put plainly: SPR.
The target in assay [7] is T1, recombinant human TrkB extracellular …. Put plainly: SPR, 1:1 binding mode, recombinant human TrkB-ECD.
Assay [8] addresses T7, recombinant cynomolgus TrkB-ECD (cynomolgus, UniProt A0A2K5VS06 32-430).
T7 construct: extracellular domain
Put plainly: SPR, 1:1 binding mode, recombinant cynomolgus TrkB-ECD.

T2 sequence (Q16620 32-822 limits assumed): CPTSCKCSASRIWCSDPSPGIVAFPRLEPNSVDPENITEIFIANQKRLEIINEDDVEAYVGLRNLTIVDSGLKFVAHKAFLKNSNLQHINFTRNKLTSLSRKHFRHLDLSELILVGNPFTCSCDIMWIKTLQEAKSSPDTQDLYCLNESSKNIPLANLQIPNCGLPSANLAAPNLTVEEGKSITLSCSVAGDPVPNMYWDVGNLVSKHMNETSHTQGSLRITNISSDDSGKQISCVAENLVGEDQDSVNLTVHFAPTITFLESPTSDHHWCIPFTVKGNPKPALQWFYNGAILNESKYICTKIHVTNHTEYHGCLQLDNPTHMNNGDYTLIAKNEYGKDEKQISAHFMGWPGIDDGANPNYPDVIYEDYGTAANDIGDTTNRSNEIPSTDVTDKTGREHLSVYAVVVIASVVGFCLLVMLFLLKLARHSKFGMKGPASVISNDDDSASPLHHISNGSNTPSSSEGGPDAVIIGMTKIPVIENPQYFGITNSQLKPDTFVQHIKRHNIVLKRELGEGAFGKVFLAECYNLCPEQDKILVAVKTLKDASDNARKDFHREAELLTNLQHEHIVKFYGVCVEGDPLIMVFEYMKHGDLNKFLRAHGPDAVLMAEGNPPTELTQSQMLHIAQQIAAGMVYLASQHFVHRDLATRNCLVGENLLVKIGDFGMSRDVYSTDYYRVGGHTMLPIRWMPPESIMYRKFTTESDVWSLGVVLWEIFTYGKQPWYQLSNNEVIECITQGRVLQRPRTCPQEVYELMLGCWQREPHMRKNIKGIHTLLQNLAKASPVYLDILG
T1 sequence (Q16620 other isoform, or with tags, fused parts or gaps): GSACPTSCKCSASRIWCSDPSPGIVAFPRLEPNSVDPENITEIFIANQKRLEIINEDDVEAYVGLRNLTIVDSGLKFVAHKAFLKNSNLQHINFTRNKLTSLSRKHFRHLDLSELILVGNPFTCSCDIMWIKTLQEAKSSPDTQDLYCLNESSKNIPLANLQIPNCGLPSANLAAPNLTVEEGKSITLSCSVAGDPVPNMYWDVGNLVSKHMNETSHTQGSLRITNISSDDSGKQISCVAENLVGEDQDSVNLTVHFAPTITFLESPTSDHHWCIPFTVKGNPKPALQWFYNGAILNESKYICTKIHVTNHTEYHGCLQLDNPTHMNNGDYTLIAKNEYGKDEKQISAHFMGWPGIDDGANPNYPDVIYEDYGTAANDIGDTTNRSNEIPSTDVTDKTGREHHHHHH
TrkB D1-D3 domain variant (C32-L196), sequence (Q16620 32-196 limits assumed, stated change not applied): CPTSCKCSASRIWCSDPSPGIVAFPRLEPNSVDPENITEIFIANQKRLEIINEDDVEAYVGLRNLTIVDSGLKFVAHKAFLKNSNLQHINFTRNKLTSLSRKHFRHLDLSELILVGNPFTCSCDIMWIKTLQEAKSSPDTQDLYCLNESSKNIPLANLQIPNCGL
human FcRn, sequence (P55899 24-297 limits assumed, chain 1 of 2): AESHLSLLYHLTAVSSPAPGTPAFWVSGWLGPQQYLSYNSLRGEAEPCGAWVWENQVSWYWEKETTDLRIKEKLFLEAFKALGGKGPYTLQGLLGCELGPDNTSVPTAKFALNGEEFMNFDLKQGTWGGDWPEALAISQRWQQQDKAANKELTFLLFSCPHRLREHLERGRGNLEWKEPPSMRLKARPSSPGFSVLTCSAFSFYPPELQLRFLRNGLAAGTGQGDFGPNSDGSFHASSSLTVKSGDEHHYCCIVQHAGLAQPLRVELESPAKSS
human FcRn, sequence (P61769 21-119 limits assumed, chain 2 of 2): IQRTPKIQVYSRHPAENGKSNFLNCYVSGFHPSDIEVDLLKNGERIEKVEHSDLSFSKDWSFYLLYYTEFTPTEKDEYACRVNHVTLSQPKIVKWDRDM
T3 sequence (Q16620 other isoform, or with tags, fused parts or gaps limits assumed): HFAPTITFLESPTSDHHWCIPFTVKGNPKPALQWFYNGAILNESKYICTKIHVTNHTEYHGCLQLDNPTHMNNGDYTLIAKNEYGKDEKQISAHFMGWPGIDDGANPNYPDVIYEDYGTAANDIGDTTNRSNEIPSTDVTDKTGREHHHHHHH
T5 sequence (Q63604 32-821): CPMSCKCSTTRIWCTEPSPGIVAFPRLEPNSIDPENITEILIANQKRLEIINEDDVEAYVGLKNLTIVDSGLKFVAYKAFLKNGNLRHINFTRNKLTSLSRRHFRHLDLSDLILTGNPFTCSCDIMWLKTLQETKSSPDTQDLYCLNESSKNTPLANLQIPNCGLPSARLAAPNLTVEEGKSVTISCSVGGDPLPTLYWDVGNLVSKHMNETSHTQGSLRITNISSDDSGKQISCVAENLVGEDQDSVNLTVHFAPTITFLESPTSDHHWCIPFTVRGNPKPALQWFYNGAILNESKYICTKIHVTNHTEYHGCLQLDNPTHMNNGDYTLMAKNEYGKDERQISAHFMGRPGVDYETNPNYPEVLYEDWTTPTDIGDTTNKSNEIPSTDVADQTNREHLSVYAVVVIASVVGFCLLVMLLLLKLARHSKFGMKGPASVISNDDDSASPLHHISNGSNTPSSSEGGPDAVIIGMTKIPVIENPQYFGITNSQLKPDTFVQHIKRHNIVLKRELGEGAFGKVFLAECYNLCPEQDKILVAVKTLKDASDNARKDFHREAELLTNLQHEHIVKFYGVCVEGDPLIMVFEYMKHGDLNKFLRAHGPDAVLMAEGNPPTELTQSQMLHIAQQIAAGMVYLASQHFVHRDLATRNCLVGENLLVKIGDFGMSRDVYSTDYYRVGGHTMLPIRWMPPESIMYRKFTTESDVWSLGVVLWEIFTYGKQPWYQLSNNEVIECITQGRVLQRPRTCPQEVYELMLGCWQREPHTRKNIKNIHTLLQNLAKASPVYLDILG
T6 sequence (P15209 32-821): as the sequence (Q63604 32-821) above, with M3T, T9S, T10A, I32V, K63R, G84S, T153M, I185L, T394S, N770S counted along it

B1: 5D11 (murine TrkB agonist monoclonal antibody) (antibody, mouse IgG1, kappa, V domains shown)
VH: QVHLQQSGAELVRPGTSVKVSCKASGYAFTNYLIEWIKQRPGQGLEWIGVINPGSGGTNYNDKFKGKAILTADKSSTTAYMQLSSLTSDDSAVYFCARGGNDYGDYWGQGTSVTVSS
VL: DIVLTQSPASLAVSLGQRATISCRASQSVSTSFYSYMHWYQQKPGQPPKVFIKYASNLQSGVPARFSGSGSGTDFTLNIHPVEEDDTATYYCQHSWEIPWTFGGGTKLEIKR
notes: Full length murine chains; same as 3E10; also called 3E10; 5D11 (=3E10)
As to B1, in assay [1], the Kd (commonly a measure of binding affinity in units of concentration) was around 3.3 nM, the off-rate (koff) (commonly the first-order rate constant of dissociation) was 0.000145 s⁻¹ and the kon (usually the rate constant with which the complex forms) came to 44100 M⁻¹ s⁻¹. Further, in assay [2], the “Activation of TrkB (pTrkB), EC50” value was 1 to 2 nM.

B2: Brain Derived Neurotrophic Factor (BDNF) (ligand, UniProt P23560 129-247, looked up)
chain: HSDPARRGELSVCDSISEWVTAADKKTAVDMSGGTVTVLEKVPVSKGQLKQYFYETKCNPMGYTKEGCRGIDKRHWNSQCRTTQSYVRALTMDSKKRIGWRFIRIDTSCVCTLTIKRGR
notes: also called BNDF
Turning to B2, in the assay with TrkB_H284-H430 ECD-6H, the binding result is given as “binds”.

B3: 1G11 (murine TrkB agonist monoclonal antibody) (antibody, V domains shown)
VH: QVQLQQSGDDLVKPGASVKLSCKASGYTFTSYYINWIKQRPGQGLECIGRIAPGNTYYNEIFKGKAILTVDTSSSTAYIQLSSLSSEDSGVYFCARRGYEGALDYWGQGTSVTVSS
VL: DIVLTQSPATLSVTPGDSVSLSCRASQRISNNLHWYQQKSHESPRLLIKYVSQSISGIPSRFSGSGSGTDFTLSINSVETEDFGMYFCQQSNSWPLTFGAGTKLELKR
notes: Full length murine heavy and light chains; from a hybridoma of Balb/c mice immunised with human TrkB-ECD; Not Fc-disabled; also called 1G11 mAb; murine 1G11
Take B3: in [3], the “cell survival, rat PC12 cells stably expressing human full length TrkB, EC50” value is 0.025 nM and the “neurite outgrowth, rat PC12 cells stably expressing human full length TrkB, EC50” value stood at 0.19 nM. In [1], the Kd is around 42 nM, the koff was determined as 0.00239 s⁻¹ and the kon was 56600 M⁻¹ s⁻¹. In addition, in assay [4], the binding result is recorded as “no binding”. Also, in assay [2], the “Activation of TrkB (pTrkB, Y515), EC50, CHO-K1 cells” value came out at 3.1 nM and the “Potentiation of BDNF-induced agonism of TrkB (pTrkB, BDNF alone = 100%)” value (“Potentiation … (pTrkB, BDNF alone = 100%)” for short) was around 130%. Further, the “EC50 (read off the curve), potentiation of pTrkB in the presence of 10 nM BDNF” value in assay [5] was around 10 nM. In addition, in [6], the binding result is given as “no binding”. Moreover, in the assay with rat TrkB receptor, the binding result was “binds”. The binding result in the assay with murine TrkB receptor was “binds”.

B4: 8E5 (murine TrkB agonist monoclonal antibody) (antibody, mouse IgG1, kappa, V domains shown)
VH: EVQLVESGGDLVKPGGSLKLSCAASGFTFSTYGMSWVRQTPDKGLEWVATVSTGGTYTYYPDSVKGRFTISRDNAKNTLYLQMSSLKSEDTAMYYCARGGYSFAYWGQGTLVTVSA
VL: ENVLTQSPAIMSASPGEKVTMTCRASSSVSSSYLHWYQQKSGVSPKLWIYSTSNLASGVPARFSGSGSGTSYSLTISSVEAEDAATYYCQQYSGYPLTFGAGTKLELKR
notes: Full length murine chains
As for B4, in [3], the “cell survival, EC50” value was 0.09 nM and the “neurite outgrowth, EC50” value was determined as 1.58 nM. In addition, in assay [1], the Kd was around 9.8 nM, the koff turned out to be 0.000676 s⁻¹ and the kon was determined as 69000 M⁻¹ s⁻¹. Also, in assay [2], the “Activation of TrkB (pTrkB), EC50” value was around 15 nM and the “Potentiation … (pTrkB, BDNF alone = 100%)” value is around 120%.

B5: 3A3 (murine TrkB agonist monoclonal antibody) (antibody, mouse IgG1, kappa, V domains shown)
VH: QVQLQQSGAELAKPGASVKMSCKASGYTFSSYWMHWVKQRPGQGLEWIGYINPSTGYTDYNQKFKDKATLTADKSSNTAYMQLSSLTSDDSAVYYCARSRAARYWGQGTTLTVSS
VL: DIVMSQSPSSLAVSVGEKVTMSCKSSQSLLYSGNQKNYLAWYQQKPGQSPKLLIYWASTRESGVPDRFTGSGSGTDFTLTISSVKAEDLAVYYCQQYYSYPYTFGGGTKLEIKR
notes: Full length murine chains; also called 3B3; 3A3 (=3B3)
Regarding B5, the “cell survival, EC50” value in assay [3] stood at 0.006 nM. Moreover, in assay [1], the Kd was around 7.5 nM, the koff was 0.000897 s⁻¹ and the kon was 120000 M⁻¹ s⁻¹. Besides, in [2], the “Activation of TrkB (pTrkB), EC50” value is 0.2 to 0.6 nM and the “Potentiation … (pTrkB, BDNF alone = 100%)” value was around 160%. Moreover, in assay [5], the “EC50 (read off the curve), potentiation of pTrkB in the presence of 10 nM BDNF” value was around 0.7 nM.

B6: Humanised 1G11 (H7, Lo1) (antibody, human IgG1, kappa)
heavy: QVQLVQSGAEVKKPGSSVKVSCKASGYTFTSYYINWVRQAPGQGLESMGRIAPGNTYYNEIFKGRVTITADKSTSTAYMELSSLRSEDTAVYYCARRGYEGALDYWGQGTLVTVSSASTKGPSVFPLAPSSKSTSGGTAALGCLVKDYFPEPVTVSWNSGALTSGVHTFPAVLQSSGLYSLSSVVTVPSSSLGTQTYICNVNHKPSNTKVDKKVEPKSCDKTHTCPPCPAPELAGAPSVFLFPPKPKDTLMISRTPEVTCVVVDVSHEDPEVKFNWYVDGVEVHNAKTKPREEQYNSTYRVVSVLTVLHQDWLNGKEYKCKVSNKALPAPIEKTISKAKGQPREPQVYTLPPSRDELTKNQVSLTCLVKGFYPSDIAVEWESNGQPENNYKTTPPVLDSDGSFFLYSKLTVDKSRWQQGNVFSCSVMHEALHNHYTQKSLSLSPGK
light: EIVLTQSPATLSLSPGERATLSCRASQRISNNLHWYQQKPGQAPRLLIKYVSQSISGIPARFSGSGSGTDFTLTISSLEPEDFAVYYCQQSNSWPLTFGQGTKLEIKRTVAAPSVFIFPPSDEQLKSGTASVVCLLNNFYPREAKVQWKVDNALQSGNSQESVTEQDSKDSTYSLSSTLTLSKADYEKHKVYACEVTHQGLSSPVTKSFNRGEC
notes: Straight graft with serine at Kabat position 47 of VH; human IgG1 Fc with L235A and G237A (EU), Fc-disabled
Consider B6, for which, in the assay with human FcRn, the binding result is listed as “binds”. Besides, in assay [3], the “Activation of TrkB (pTrkB), EC50, CHO-K1 cells” value amounted to 0.65 nM; the “cell survival, rat PC12 cells stably expressing human full length TrkB, EC50” value is 0.007 nM; the “neurite outgrowth, rat PC12 cells stably expressing human full length TrkB, EC50” value was 0.07 nM. Also, in assay [7], the Kd was around 55 nM. In [8], the Kd was around 60 nM.
